“Also recorded” adds a separate entry of the source.
B1: 2G11: anti-hNav1.7 mouse monoclonal antibody, IgG2a, k; heavy chain SEQ ID NO: 117, light chain SEQ ID NO: 119 (antibody, V domains shown)
VH: QVQLQQPGAELVKPGASVKLSCKASGYTFTTYWMHWVKQRPGQGLEWIGEINPSNGRANYNEKFKSKATLTVDKSSSTAYMQLSSLTSEDSAVYYCLRSLGYFDYWGQGTTLTVSSAKTTAPSVYPLAPG
VL: DVVMTQSPLSLPVSLGDQASISCRSSQSLVHSNGNTYLHWYLQKAGQSPKFLIYKVSNRFSGVPDRFSGSGSGTDFTLKISRVEAEDLGVYFCSQSTHVPYTFGGGTKLEIKRADAAPTVSIFPPSS
modifications: Heavy chain of the 2G11 antibody without leader sequence; Light chain of the 2G11 antibody without leader sequence
B2: 1H5: anti-hNav1.7 mouse monoclonal antibody, IgG1, k; heavy chain SEQ ID NO: 121, light chain SEQ ID NO: 123 (antibody, V domains shown)
VH: EVKLVESGGGLVKPGGSLKLSCAASGFTFRSYAMSWVRQTPEKGLEWVASISSGGSTYYPDSVKGRFTISRDNAGNILYLQMSSLRSEDTAMYYCARGYDGYYERIWYYAMDYWGQGTSVTVSSAKTTPPSVY
VL: DIVMTQSQKFMSTSVGDRVTVSCKASQNVGTIVAWYQQKPGQSPKALIYSASYRFSGVPDRFTGSGSGTDFTLTISNVQSEDLAEYFCQQYNTYPLTFGSGTKLEIKRADAAPTVSIFPPSS
modifications: Heavy chain of the 1H5 antibody without leader sequence; Light chain of the 1H5 antibody without leader sequence

Key:
FC5DIE3IR [1] = biological target: T1, FC5DIE3IR (Homo sapiens, UniProt Q15858); experiment: Surface Plasmon Resonance of mAbs, FC5DIE3IR; assay type: binding
T1 construct: The supernatant was collected and loaded on a 5 ml MabSelect™ SuRe™ column; made in house; host or cells: CHO-3E7 (transient, pTT5 vector), purified from supernatant
Procedure: (§1) Surface Plasmon Resonance of mAbs. FC5 and FC5DIE3IR proteins were SEC purified using a Superdex 75 column (GE Healthcare) connected to an AKTAPurifier (GE Healthcare) in HBS-EP+ running buffer (10 mM HEPES, pH 7.4, containing 150 mM NaCl, 3 mM EDTA and 0.05% P20) at a flow rate of 1 ml/min. Monomeric eluted peaks were used to flow over Fc-capture 3A8 mAb surfaces. To prepare the 3A8 mAb surfaces, approximately 6000 RUs of anti-mouse IgG (GE Healthcare) was first immobilized on CM5 Series S sensor chips (GE Healthcare) at pH 5.0, using standard amine coupling methods previously reported (Hussack et al., 2011) and according to the manufacturer's instructions (GE Healthcare). HBS-EP running buffer used for SPR experiments. The mAb 3A8 was captured on the anti-mouse IgG surface using 10 μg/ml of mAb, 30 sec contact time and flow rate of 10 μl/min. IMAC-purified DI-D VHH was passed through a Superdex 75 (GE Healthcare) column for SEC purification in HBS-EP buffer (10 mM HEPES, pH 7.4, containing 150 mM NaCl, 3 mM EDTA and 0.005% P20), connected to an AKTAPurifier (GE Healthcare) at a flow rate of 1 ml/min. Test binding experiments of FC5 control and FC5DIE3IR involved flowing 1 μM concentrations of SEC-pure material over the mAb surface at a flow rate of 30 μl/min for 5 min. Surfaces could be regenerated using 10 mM glycine, pH 1.7, with a 120 sec pulse at 20 μl/min. All SPR experiments were evaluated with Biacore T200 Software v 3.0. For kinetic analysis, single cycle kinetic analysis was used by flowing a range of FC5DIE3IR concentrations (320 nM-20 nM) at a flow rate of 30 μl/min, with 600 sec contact time and 1200 sec dissociation. Regeneration conditions were the same as above. Data were fit to a 1:1 binding model and analyzed using the Biacore T200 Software v3.0.
(§2) Surfaces were regenerated by washing with running buffer (HBS-EP). Data were analyzed with BIAevaluation 4.1 software as described (Hussack et al., 2011) and affinities determined using the steady state binding model.
(§3) Surface Plasmon Resonance (SPR) for monoclonal antibodies.

FC5DIE3IR [2] = biological target: T1, FC5DIE3IR; experiment: Hydrogen-Deuterium Exchange Mass Spectrometry (HDX-MS); assay type: binding; details: labelling 1, 10 and 60 min
VHH FC5 = experiment: Surface Plasmon Resonance of mAbs, FC5 control; assay type: binding; details: SPR; 25 °C
Sequence of VHH FC5 (as listed by the source): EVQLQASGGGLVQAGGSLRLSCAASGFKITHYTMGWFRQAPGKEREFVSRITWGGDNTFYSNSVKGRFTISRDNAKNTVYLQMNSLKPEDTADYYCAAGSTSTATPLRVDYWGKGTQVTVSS
Procedure: as §1, §2, §3

hNav1.7 channels = hNav1.7 channels (Homo sapiens, UniProt Q15858, W1161R); experiment: Patch-clamp whole-cell recordings in hNav1.7-HEK293 cells; assay type: cell-based
glioblastoma U87MG cells = experiment: Soft agar assay, U87MG; details: mAb 1 μM
[3] = system: CFA-induced thermal hyperalgesia; experiment: Hargreaves Model of Hyperalgesia in rats; assay type: in vivo, rat; details: for Maximum percentage of the effect (% Effect; % MPE): time of maximum (1, 2 or 4 h)
Procedure: Hargreaves Model of Hyperalgesia in rats. Rats aged 4-6 weeks (weight range, 180-220 g) were used for intraplantar (ipl) administrations of various antibodies and evaluation of their efficacy in the Hargreaves model of inflammatory pain. Chronic inflammatory pain is induced by injecting a low volume (50 μl) of complete Freund's adjuvant (CFA; heat-killed M. tuberculosis—Sigma, St. Louis, Mo.—suspended in oil:saline 2:1 emulsion) into the right hind paw. The paw withdrawal latency in response to the application of a radiant stimulus onto the plantar surface of both right and left paw was measured using the plantar Analgesia Meter equipment for paw stimulation (IITC Life Science, Woodland Hills, Calif.). The time taken by the animal to respond by licking or flicking its paw is interpreted as positive response (paw withdrawal latency). After 48 h of the CFA injection, the baseline for latency paw withdrawal was measured and the mAbs tested. […] A cut-off time (20 sec) is established at the end of which the heat source shuts off automatically to avoid tissue damage. Animals were kept (randomized) one per cage and staff performing pain experiments are blinded to the content of injectable compounds. Percentage of maximum possible effect (% MPE) was calculated using the formula % MPE=(Test Latency−Baseline Latency)×100/(Cut-off−Baseline Latency).

[4] = system: OD1-evoked Nav1.7-mediated spontaneous pain behaviours; assay type: in vivo, mouse; details: 100 μg, injected 60 minutes prior to OD1; 20 min after the injection
CHO-3E7 = experiment: Cell-ELISA on live CHO-3E7 cells; assay type: cell-based, Chinese hamster; details: hybridoma supernatant, OD450 nm
Procedure: Cell-ELISA. Sterile 96-well plates (Costar #3595) were pre-treated with 50 μl/well of branched polyethyleneimine (PEI, Sigma Cat #408727) at 25 μg/ml in PBS for 30 min at room temperature. PEI was removed and CHO-3E7 or hNAv1.7-CHO (ChanTest cat #CT4003) were seeded at 6×10^5 cells per well in FreeStyle F17 Expression Medium (Gibco Cat #A1383501) and incubated overnight at 37° C., 5% CO2. Microplates were blocked with Starting block (Thermofisher Cat #37538) for 30 min at room temperature, and 50 μl of hybridoma supernatants were added and incubated at 4° C. for 3 h. Plates were washed 5 times with PBS and incubated for one hour at 4° C. with 50 μl of secondary antibody HRP-conjugated F(ab′)2 goat anti-mouse IgG (H+L) (Jackson Immunoresearch #115-036-062) diluted 1/5000 in blocking buffer. After 10 washes with PBS, 50 μl of TMB substrate solution (Pierce Cat #34021) was added and further incubated for 60 min at room temperature. Twenty-five μl/well of stop solution ([…] 1M) was added and OD450 nm measurements were done using a microplate reader (Spectramax 340 PC, Molecular Devices).

[5] = system: overlapping antigen-peptides derived from DIE3IR; experiment: ELISA of mAbs on overlapping antigen-peptides derived from DIE3IR; assay type: binding, human; details: peptides coated 100-500 ng/well
Procedure: The peptides were custom-synthesized (Biomatik) and tested for antibody binding by ELISA. […] The wells were blocked with 1% BSA in TBS-T for 30 min and then incubated with 1:1000 dilution of anti-hNav1.7 mAb at room temperature (RT) for one hr. Following three TBS-T washes (3×5 min), mAb binding to peptides was detected by incubating with HRP-conjugated anti-mouse Fc antibody for 90 min at RT in TBS-T. The bound antibody was detected with SureBlue™ TMB reagent kit (KPL) by colorimetric measurement at 450 nm according to manufacturer's instructions.
To identify the epitope for mAb 3A8 on DIE3IR, seven overlapping antigen-peptides were generated (FIG. 15A) and an ELISA was performed to determine the binding between these peptides and the various mAb (FIGS. 15C to 15I).

[6] = system: ovarian cancer SKOV-3 cells; experiment: Soft agar assay, SKOV-3; details: mAb 1 μM; FIG. 24D
[7] = system: glioblastoma U87MGvIII cells; experiment: Soft agar assay, U87MGvIII; details: mAb 1 μM; FIG. 24C
[8] = −20 mV, after antibody application (1 μM)

| Molecule | Binding to FC5 control (comment, in words) (VHH FC5) | Percentage of effect after injection (on left paw withdrawal) ([3]; 100 μg intraplantar, 0 h) [%] | Latency paw withdrawal ([3]; 100 μg intraplantar, 1 h) [s] | Percentage of effect after injection (on left paw withdrawal) ([3]; 100 μg intraplantar, 1 h) | Percentage of effect after injection (on left paw withdrawal) ([3]; 100 μg intraplantar, 2 h) | Percentage of effect after injection (on left paw withdrawal) ([3]; 100 μg intraplantar, 4 h) | Maximum percentage of the effect (% Effect; % MPE) ([3]; 100 μg intraplantar) [%] | Time spent in pain behaviors (saline plus OD1 = 100%) [4] | ELISA on live cells (duplicates) CHO-3E7 (CHO-3E7; duplicate 1) | ELISA on live cells (duplicates) CHO-3E7 (CHO-3E7; duplicate 2) | Peptide in which the binding motif resides / that is bound [5] | other results |
| --- | --- | --- | --- | --- | --- | --- | --- | --- | --- | --- | --- | --- |
| B1 | did not bind; also recorded: No binding | 0 | 8.80 ± 1.02 | 27.98% ± 7.17 | 22.02% ± 2.08 | 25.80% ± 2.82 | 27.98±7.17 | 63.47±4.78% | −0.027 | −0.025 | pep #40a | ka (FC5DIE3IR [1]): 9560 M⁻¹ s⁻¹; kd (FC5DIE3IR [1]): 0.000526 s⁻¹; Rmax (RU) (FC5DIE3IR [1]; Fc-captured mAb, FC5-DIE3IR flowed, 25 °C): 84 RU; Binding to FC5DIE3IR (comment, in words) (FC5DIE3IR [1]; SPR, 25 °C): strong and specific binding; also recorded: strongly and specifically bound; Stabilization of FC5DIE3IR in response to mAb binding (residues, differential HDX-MS) (FC5DIE3IR [2]): Asn121-Tyr134; Voltage-dependence of activation (shift V1/2 activation) (hNav1.7 channels; 1 μM): −4.7 mV; Voltage-dependence of the steady-state fast inactivation (shift V1/2 inactivation) (hNav1.7 channels; 1 μM): −13.9 mV; Onset time of the effect (exponential fit of the current decay, T) (hNav1.7 channels; 2 μM, single time-course recording of the figure): 57 s; Effect on hNav1.7 currents (in words) (hNav1.7 channels; example recordings, 1-3 μM): reduced the hNav1.7 currents; Fast inactivation (time constant) (hNav1.7 channels; [8]): 0.81 ms; Time-to-peak (hNav1.7 channels; [8]): 0.87 ms; Reduction of colony formation (glioblastoma U87MG cells; different experiment, FIG. 24B): 60%; Latency paw withdrawal ([3]; 100 μg intraplantar, 2 h): 7.86 ± 0.33 s; Latency paw withdrawal ([3]; 100 μg intraplantar, 4 h): 8.45 ± 0.44 s; Latency paw withdrawal ([3]; intraplantar, mAbs 100 μg, 11E5 dose not stated, time not given): 8.45 ± 0.44 s |
| B2 | No binding | 0 | 7.97 ± 0.61 | 21.85% ± 3.71 | 35.23% ± 0.88 | 31.20% ± 5.18 | 35.23±0.88 | 73.84%±16.78 | −0.014 | 0.029 | Pep #3 | Reduction of colony formation [6]: 57%; Reduction of colony formation (glioblastoma U87MG cells; FIG. 24A): 37%; Reduction of colony formation [7]: 60% |
